According to patent publication US20180193475A1 (Novartis, published 2018):
Substitutions are numbered along the chain they refer to.

T1: Cynomolgus monkey cKIT D1-5 (cyno cKIT ECD, C-terminal 6x His) (cynomolgus monkey, UniProt P10721 25-520 (human entry))
T1 construct: The signal peptide is not part of the protein in the assay; The entry includes the C-terminal His tag; also called cynomolgus monkey ECD
T1 chain: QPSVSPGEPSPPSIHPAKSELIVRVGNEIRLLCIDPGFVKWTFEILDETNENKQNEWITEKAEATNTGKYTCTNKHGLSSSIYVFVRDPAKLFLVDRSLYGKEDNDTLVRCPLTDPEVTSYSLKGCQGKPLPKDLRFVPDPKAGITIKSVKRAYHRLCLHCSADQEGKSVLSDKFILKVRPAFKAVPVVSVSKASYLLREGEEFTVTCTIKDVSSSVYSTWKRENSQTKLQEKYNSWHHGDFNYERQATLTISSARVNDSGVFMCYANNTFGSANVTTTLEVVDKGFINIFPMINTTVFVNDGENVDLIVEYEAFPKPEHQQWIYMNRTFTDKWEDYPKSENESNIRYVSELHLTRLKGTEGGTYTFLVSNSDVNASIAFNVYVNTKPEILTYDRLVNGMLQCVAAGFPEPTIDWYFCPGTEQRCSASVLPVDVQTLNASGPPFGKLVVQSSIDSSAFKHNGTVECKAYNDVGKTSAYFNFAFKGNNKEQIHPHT

T2: Mouse cKIT ECD, C-terminal 6x His (Sino Biological Inc, catalog number 50530-M08H) (mouse, UniProt P05532 25-527)
T2 construct: extracellular domain; Bought protein; not shown: C-terminal 6x His tag
T2 sequence (looked up): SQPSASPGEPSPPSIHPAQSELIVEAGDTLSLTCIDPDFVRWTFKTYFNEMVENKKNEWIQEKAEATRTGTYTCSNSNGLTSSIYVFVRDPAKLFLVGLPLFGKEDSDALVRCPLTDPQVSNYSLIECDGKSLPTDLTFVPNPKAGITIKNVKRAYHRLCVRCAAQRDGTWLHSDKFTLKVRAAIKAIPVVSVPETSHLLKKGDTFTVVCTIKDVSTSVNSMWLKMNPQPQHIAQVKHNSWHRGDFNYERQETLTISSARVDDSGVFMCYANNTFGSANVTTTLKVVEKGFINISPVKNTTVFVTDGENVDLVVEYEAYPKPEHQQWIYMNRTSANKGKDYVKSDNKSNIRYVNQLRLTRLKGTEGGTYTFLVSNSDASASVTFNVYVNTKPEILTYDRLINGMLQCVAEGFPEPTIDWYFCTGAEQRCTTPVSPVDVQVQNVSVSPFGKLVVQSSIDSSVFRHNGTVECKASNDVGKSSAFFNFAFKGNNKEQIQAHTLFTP

T3: Rat cKIT D1-5, C-terminal mFc (rat)
T3 construct: The whole entry is rat cKIT ECD residues 25-526, a linker and a mouse Fc tag; also called rat cKIT-mFc
T3 chain: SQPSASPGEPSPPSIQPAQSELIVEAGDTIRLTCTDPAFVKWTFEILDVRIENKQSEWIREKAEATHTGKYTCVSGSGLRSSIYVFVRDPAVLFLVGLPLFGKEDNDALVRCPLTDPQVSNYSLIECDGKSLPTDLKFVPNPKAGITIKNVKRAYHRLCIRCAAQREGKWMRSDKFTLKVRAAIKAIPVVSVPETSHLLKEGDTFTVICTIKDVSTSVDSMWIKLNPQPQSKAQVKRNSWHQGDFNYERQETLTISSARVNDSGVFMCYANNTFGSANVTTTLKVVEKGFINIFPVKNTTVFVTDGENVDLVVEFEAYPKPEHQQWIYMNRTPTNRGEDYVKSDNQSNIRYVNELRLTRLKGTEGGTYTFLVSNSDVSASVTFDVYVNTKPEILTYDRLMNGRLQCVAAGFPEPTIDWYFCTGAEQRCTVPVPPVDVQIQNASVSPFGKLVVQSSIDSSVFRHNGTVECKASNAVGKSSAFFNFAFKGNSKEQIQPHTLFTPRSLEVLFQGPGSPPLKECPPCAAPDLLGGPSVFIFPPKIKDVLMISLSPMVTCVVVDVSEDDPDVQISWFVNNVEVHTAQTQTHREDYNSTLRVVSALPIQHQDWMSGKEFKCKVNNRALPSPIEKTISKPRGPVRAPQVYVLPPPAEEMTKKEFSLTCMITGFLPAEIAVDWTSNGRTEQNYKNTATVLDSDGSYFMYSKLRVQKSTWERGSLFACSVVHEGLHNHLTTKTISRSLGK

B1: NEG086 (antibody, human IgG1, kappa, V domains shown)
VH: EVQLVESGGGLVQPGGSLRLSCAASGFTFSDYYMAWVRQAPGKGLEWVANINQIAGSTYYVDSVQGRFTISRDNAKNSLYLQMNSLRAEDTAVYYCARGDYYGTTYWYFDVWGQGTTVTVSS
VL: DIQMTQSPSSLSASVGDRVTITCRASQSISSYLNWYQQKPGKAPKLLIYYTSRLQSGVPSRFSGSGSGTDFTLTISSLQPEDFATYYCQQGRRLWSFGGGTKVEIKR
notes: Humanized, optimized variant of 9P3; human IgG1 kappa
B2: NEG024 (antibody, human IgG1, kappa, V domains shown)
VH: B1 VH with V61L, Q65R
VL: EIVMTQSPATLSLSPGERATLSCRASQDISNYLNWYQQKPGQAPRLLIYYTSRLQSGIPARFSGSGSGTDYTLTISSLEPEDFAVYYCQQGKKLWSFGGGTKVEIKR
notes: as for B1
B3: NEG087 (antibody, human IgG1, kappa, V domains shown)
VH: B1 VH with N50S, I54N, A55T, V61L, Q65R
VL: B1 VL
notes: as for B1
B4: NEG085 (antibody, human IgG1, kappa, V domains shown)
VH: B1 VH with T28A, D31G, Q53Y, I54P, A55G, G56S, V61L, Q65K
VL: B1 VL
B5: 20376 (antibody, human IgG1, lambda, V domains shown)
VH: QVQLVQSGAEVKKPGSSVKVSCKASGGTFSSYAISWVRQAPGQGLEWMGGIIPMSGRTTYAQKFQGRVTITADESTSTAYMELSSLRSEDTAVYYCARDYGPEAPDYGQSTSYFWYYAFDPWGQGTLVTVSS
VL: DIELTQPPSVSVSPGQTASITCSGDNIPSYFVHWYQQKPGQAPVLVIYDDNDRPSGIPERFSGSNSGNTATLTISGTQAEDEADYYCSSWDQDTVVFGGGTKLTVLG
B6: 20507 (antibody, human IgG1, kappa, V domains shown)
VH: QVQLVQSGAEVKKPGSSVKVSCKASGGTFSSYAISWVRQAPGQGLEWMGTIGPFEGQPRYAQKFQGRVTITADESTSTAYMELSSLRSEDTAVYYCARGGYISDFDVWGQGTLVTVSS
VL: DIQMTQSPSSLSASVGDRVTITCRASQSISNYLAWYQQKPGKAPKLLIYDASSLQSGVPSRFSGSGSGTDFTLTISSLQPEDFATYYCQQYYYESITFGQGTKVEIKR
notes: HuCAL-derived human IgG1 kappa
B7: NEG027 (antibody, human IgG1, kappa, V domains shown)
VH: B1 VH with N50S, I54N, A55T, V61L, Q65R
VL: B2 VL
notes: as for B1
B8: anti-cKIT antibody 9P3 (antibody, V domains shown)
VH: EVRLVESEGGLVQPRSSMKLSCTASGFTFSDYYMAWVRQVPEKGLEWVANINYDGSSTYYLDSLKSRFIISRDNAKNILYLQMSSLKSEDTATYYCARGDYYGTTYWYFDVWGTGTTVTVSS
VL: DIQMTQTTSSLSASLGDRVTISCRASQDISNYLNWYQQKPDGTVKLLIYYTSRLQSGVPSRFSGSGSGTDYSLTISNLEQEDIATYFCQQGKKLWSFGGGTKLEIKR
notes: Hybridoma-derived mouse variable domains
B9: NEG026 (antibody, human IgG1, kappa, V domains shown)
VH: B1 VH with I54N, A55T
VL: B2 VL
notes: as for B1

Target: T1, Cynomolgus monkey cKIT D1-5 (cyno cKIT …)
Experiment: SPR (Biacore 2000): antibody captured by anti-human Fc on CM5, cKIT ECD in solution, 25 C, 1:1 fit
Experimental: (§1) Affinity of the antibodies to cKIT species orthologues and also to cKIT was determined using SPR technology using a Biacore® 2000 instrument (GE Healthcare, Pittsburgh, Pa.) and with CM5 sensor chips.
(§2) Briefly, HBS-P (0.01 M HEPES, pH 7.4, 0.15 M NaCl, 0.005% Surfactant P20) supplemented with 2% Odyssey® blocking buffer (Li-Cor Biosciences, Lincoln, Nebr.) was used as the running buffer for all the experiments. The immobilization level and analyte interactions were measured by response unit (RU).
(§3) For kinetic measurements, the experiments were performed in which the antibodies were captured to the sensor chip surface via the immobilized anti-human Fc antibody and the ability of the cKIT proteins to bind in free solution was determined. […] 0.1-1 μg/ml of test antibodies were then injected at 10 μl/min for 1 minute. […] Subsequently, 3.125-50 nM of cKIT receptor extracellular domains (ECD) were diluted in a 2-fold series and injected at a flow rate of 40 μl/min for 3 min over both reference and test flow cells. Table of tested ECDs is listed below (Table 6). Dissociation of the binding was followed for 10 min. After each injection cycle, the chip surface was regenerated with 3 M MgCl₂ at 10 μl/min for 30 seconds.
For B1, the Kd was 1.34 nM.
Work on B2 yielded a Kd of 1.15 nM.
Work on B3 yielded a Kd of 1.39 nM.
B4 showed a Kd of 6.14 nM.
Work on B5 yielded a Kd of 4.8 nM.
In the case of B6, the Kd is reported as 0.56 nM.

What follows are binders tested against T4, Human cKIT D1-5 (human cKIT ECD, C-terminal 6x His) (human, UniProt P10721 26-524) in the same assay as above.
T4 construct: also called human cKIT-His
T4 sequence (P10721 other isoform, or with tags, fused parts or gaps limits assumed): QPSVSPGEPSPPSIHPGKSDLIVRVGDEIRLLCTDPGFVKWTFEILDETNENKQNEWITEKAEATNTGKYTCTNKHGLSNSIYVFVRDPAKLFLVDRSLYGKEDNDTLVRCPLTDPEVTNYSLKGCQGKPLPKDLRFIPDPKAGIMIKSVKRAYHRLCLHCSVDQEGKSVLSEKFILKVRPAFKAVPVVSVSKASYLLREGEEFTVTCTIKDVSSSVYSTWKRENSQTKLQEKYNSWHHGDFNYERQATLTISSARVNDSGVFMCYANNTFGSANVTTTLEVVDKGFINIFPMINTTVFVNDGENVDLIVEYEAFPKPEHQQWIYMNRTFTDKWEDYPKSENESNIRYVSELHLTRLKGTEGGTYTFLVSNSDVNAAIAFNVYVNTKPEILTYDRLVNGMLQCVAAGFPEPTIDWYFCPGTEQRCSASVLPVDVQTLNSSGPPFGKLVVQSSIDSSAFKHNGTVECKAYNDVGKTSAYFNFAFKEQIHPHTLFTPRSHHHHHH
Experimental: as §1, §2, §3
With B1 the Kd was 1.44 nM.
Binder B7 has a Kd of 1.34 nM.
B2 gave a Kd of 1.31 nM.
B3 gave a Kd of 1.13 nM.
Binder B4 has a Kd of 8.4 nM.
Binder B8 has a Kd of 20 nM.
For B5, the Kd was 9.1 nM.

Each binder was assayed against T2, Mouse cKIT ECD, C-terminal 6x His (Sino …) in the same assay as above.
Experimental: as §1, §2, §3
B5 showed a Kd of 2.5 nM.

These binders were tested against T5, Human cKIT D1-3 (ECD subdomains 1-3, ligand binding domain) (human, UniProt P10721 26-311) (assay: ELISA on coated cKIT ECD subdomains).
T5 construct: also called cKIT subdomains 1-3
T5 sequence (P10721 other isoform, or with tags, fused parts or gaps limits assumed): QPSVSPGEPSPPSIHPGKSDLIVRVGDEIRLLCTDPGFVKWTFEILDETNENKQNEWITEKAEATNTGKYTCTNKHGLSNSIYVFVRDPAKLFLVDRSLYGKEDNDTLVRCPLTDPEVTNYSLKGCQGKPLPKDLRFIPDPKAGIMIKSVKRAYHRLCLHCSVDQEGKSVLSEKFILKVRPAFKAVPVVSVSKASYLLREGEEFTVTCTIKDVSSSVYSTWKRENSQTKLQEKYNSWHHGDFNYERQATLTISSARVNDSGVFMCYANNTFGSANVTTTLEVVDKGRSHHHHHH
B9: binds.

Target: T3, Rat cKIT D1-5, C-terminal mFc
Experiment: SPR (Biacore 2000): antibody captured by anti-human Fc, cKIT ECD in solution
Experimental: as §1, §2, §3
B1: no binding (tested: 3.125-50 nM ECD injected).
B7: no binding (tested: 3.125-50 nM ECD injected).
B2: no binding (tested: 3.125-50 nM ECD injected).
B3: no binding (tested: 3.125-50 nM ECD injected).
B9: no binding (tested: 3.125-50 nM ECD injected).
B4: no binding (tested: 3.125-50 nM ECD injected).
B8: no binding (tested: 3.125-50 nM ECD injected).
B5: no binding (tested: 3.125-50 nM ECD injected).
B6: no binding (tested: 3.125-50 nM ECD injected).

The binders below were run against T2, Mouse cKIT ECD, C-terminal 6x His (Sino …) in the same assay as above.
Experimental: as §1, §2, §3
B1: no binding (tested: 3.125-50 nM ECD injected).
B7: no binding (tested: 3.125-50 nM ECD injected).
B2: no binding (tested: 3.125-50 nM ECD injected).
B3: no binding (tested: 3.125-50 nM ECD injected).
B9: no binding (tested: 3.125-50 nM ECD injected).
B4: no binding (tested: 3.125-50 nM ECD injected).
B8: no binding (tested: 3.125-50 nM ECD injected).
B6: no binding (tested: 3.125-50 nM ECD injected).
